Consider two molecules from patent US20170101442A1 (CURATORS OF THE UNIVERSITY OF MISSOURI, published 2017).

Ends that are not written are not given here.

Test [1] addresses T1, insulin-like growth factor 2 receptor (IGF2R) on human hepatic stellate cells LX-2 (human, UniProt P11717 41-2491).
T1 construct: Endogenous IGF2R on LX-2 cells; also called LX-2 cells; LX 2 cells
Put plainly: flow cytometry, labelled dimeric peptide titrated on LX-2 cells; apparent Kd. The method, then:
(§1) The cells were incubated with 5 FAM labeled peptides at different concentrations for 1 h at 37° C. The labeled cells were detected by flow cytometry, and the apparent Kd value was calculated using GraphPad Prism. […] The result is consistent with the cellular uptake result depicted in FIGS. 7A-7B, 8A-8G, and 9A-9G.
For orientation: A flow cytometer gives signals particle by particle.

Test [2] addresses T1, insulin-like growth factor 2 receptor …. The experiment in a line: flow cytometry on LX-2 cells; apparent Kd of the dimer against that of the monomer. The method, then:
as §1

For test [3] the target is unchanged. Put plainly: flow cytometry, 5-FAM labelled peptide titrated on LX-2 cells, 1 h at 37 C; apparent Kd. On the procedure:
as §1

T1 sequence (P11717 41-2491 R1619G limits assumed): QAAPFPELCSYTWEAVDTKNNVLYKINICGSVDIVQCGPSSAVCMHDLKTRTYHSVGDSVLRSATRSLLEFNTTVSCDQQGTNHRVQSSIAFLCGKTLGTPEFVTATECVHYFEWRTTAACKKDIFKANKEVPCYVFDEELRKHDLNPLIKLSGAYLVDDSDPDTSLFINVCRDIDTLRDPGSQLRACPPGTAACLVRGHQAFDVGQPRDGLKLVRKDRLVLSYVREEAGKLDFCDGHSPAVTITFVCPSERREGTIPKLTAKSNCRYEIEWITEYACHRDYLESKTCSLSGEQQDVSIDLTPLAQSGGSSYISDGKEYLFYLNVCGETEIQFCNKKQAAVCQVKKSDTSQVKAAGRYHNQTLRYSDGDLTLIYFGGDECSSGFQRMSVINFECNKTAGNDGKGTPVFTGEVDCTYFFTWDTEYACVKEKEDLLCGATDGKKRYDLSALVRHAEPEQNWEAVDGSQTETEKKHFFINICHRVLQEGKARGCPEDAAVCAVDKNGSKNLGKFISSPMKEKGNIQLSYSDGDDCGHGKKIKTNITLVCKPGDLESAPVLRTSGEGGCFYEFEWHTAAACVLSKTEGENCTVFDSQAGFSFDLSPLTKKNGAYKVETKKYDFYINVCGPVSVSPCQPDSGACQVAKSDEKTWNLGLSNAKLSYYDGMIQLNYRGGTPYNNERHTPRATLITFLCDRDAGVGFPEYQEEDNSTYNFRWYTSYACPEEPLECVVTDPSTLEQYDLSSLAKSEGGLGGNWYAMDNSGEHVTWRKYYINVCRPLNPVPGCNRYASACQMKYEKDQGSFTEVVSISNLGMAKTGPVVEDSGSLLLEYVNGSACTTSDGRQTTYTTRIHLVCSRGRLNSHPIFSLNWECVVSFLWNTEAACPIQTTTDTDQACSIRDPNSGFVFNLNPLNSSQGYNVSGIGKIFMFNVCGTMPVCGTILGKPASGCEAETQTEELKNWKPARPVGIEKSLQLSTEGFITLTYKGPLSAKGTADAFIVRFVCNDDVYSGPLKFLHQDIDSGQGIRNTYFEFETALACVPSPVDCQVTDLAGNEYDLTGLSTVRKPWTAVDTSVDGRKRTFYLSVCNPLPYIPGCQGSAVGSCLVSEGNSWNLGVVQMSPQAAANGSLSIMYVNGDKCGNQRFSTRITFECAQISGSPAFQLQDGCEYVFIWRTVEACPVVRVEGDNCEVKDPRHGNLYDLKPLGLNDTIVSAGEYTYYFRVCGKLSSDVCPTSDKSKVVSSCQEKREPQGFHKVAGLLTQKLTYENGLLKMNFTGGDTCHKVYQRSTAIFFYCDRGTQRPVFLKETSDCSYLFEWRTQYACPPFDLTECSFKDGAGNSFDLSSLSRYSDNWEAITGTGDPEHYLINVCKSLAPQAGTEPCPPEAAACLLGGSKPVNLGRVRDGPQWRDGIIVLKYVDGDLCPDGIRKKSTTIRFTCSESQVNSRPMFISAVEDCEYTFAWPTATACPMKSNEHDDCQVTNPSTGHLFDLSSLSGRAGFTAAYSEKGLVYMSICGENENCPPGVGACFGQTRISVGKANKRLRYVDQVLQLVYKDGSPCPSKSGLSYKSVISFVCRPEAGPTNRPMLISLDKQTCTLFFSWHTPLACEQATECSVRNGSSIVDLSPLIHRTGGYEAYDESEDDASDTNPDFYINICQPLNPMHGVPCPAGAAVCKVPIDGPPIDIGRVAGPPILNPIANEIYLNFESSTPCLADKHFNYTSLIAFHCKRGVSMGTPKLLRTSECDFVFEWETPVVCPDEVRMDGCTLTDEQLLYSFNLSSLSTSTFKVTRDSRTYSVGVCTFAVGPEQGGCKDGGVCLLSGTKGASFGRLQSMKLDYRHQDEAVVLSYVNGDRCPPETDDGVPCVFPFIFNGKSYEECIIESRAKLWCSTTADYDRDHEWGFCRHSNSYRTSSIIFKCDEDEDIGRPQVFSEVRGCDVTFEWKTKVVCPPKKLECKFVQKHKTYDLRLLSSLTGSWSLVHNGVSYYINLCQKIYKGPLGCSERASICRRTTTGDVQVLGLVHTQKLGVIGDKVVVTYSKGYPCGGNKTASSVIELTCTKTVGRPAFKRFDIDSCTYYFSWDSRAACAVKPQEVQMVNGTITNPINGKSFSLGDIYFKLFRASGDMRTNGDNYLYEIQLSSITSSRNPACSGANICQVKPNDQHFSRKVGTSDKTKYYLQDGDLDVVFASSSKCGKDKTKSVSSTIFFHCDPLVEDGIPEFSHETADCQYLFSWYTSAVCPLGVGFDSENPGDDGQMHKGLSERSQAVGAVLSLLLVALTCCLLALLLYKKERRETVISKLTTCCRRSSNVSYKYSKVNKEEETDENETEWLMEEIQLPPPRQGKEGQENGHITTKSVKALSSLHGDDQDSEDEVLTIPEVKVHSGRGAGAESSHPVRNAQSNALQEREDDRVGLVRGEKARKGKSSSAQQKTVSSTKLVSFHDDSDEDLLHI

B1: dimeric peptide 431 (peptide)
peptide: VHWDFRQWWQPS
modifications: also: dimer: two copies linked via a lysine, imaging agent coupled to the linker
Regarding B1, the Kd in test [1] was 0.701 µM. In addition, the “fold lower apparent Kd against monomeric peptide 431” value in test [2] was about 9 fold. With VHWDFRQWWQPS (also: 5-FAM label, position not given here) [Peptide-431], the Kd in test [3] is 6.19 µM.
